# Laboratory results reported in US20040203067.
# Molecular target: STAT-3 (endogenous, in 32Dcl3-derived cells) (UniProt P42227)
# Sequence (P42227 2-770): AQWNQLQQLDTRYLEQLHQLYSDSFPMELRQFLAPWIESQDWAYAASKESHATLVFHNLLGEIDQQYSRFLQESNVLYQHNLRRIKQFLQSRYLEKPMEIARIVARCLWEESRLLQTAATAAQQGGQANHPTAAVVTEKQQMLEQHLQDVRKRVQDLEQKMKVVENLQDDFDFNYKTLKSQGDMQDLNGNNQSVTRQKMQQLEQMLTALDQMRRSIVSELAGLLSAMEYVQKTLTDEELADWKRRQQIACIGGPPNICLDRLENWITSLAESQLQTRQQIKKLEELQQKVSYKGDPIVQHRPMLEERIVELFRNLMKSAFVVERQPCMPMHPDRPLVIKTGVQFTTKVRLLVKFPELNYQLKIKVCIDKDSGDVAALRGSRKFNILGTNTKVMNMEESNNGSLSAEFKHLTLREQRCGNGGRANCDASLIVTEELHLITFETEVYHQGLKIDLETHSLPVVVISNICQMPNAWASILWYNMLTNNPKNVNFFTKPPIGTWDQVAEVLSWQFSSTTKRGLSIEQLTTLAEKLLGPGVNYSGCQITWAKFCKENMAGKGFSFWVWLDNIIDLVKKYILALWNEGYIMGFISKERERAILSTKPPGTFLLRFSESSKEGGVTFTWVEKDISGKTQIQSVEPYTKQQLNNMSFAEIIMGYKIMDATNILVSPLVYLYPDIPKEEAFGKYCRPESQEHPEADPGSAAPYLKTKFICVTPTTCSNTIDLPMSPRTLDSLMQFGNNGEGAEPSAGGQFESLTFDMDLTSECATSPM
substance,measurement,value
"c-Src (endogenous, activated, in IL-3 stimulated 32Dcl3 cells)",tyrosine phosphorylation of STAT-3 (4G10 Western blot of STAT-3 immunoprecipitates),phosphorylation of STAT-3 following IL-3 stimulation of 32Dcl3 cells is blocked by AMSrc
